The record followed here is doi:10.1101/2023.06.21.545551, “Intrinsically disordered regions in the transcription factor MYC:MAX modulate DNA binding via intramolecular interactions”.

The target in series [1] is T1, MYC(2-439) full-length;MAX(2-160) (human?;human?, UniProt P01106-1;P61244 ;, |). As to the kind of experiment: SPR; negative control bound only by MYC(352-437):MAX; SPR: 25 mM HEPES pH 8, 150 mM NaCl, 1 mM TCEP, 0.01% Tween-20, 3 mM EDTA, temperature not stated; NMR: 20 mM HEPES pH 7, 100 mM NaCl (E100; or E300), 2 mM TCEP, 5% D2O, 298 K (complexes) or 283 K (disordered fragments). As to conditions: protein: recombinant;recombinant; tags: none;N-Strep-TEV, cleavable; copies: 1;1; label: 5'-biotin on strand 1; blunt.

In series [2] the target is T2, MYC(151-439);MAX(2-160) of commercial complex (human?;human?, UniProt P01106-1;P61244 ;, |). The description is as above. As to conditions: protein: commercial;commercial; copies: 1;1; label: 5'-biotin on strand 1; blunt.
The target in series [3] is T1, MYC(2-439) full-length;MAX(2-160). In words: SPR; range over canonical and mutant E-Boxes; SPR: 25 mM HEPES pH 8, 150 mM NaCl, 1 mM TCEP, 0.01% Tween-20, 3 mM EDTA, temperature not stated; NMR: 20 mM HEPES pH 7, 100 mM NaCl (E100; or E300), 2 mM TCEP, 5% D2O, 298 K (complexes) or 283 K (disordered fragments). The note with it: protein: recombinant;recombinant; tags: none;N-Strep-TEV, cleavable; copies: 1;1; label: 5'-biotin on strand 1; blunt. (In general: In SPR one partner is held on a chip, and binding of the other changes the refractive index at the surface.)

In series [4] the target is T2, MYC(151-439);MAX(2-160) of commercial …. As to the kind of experiment: SPR; affinity between P3+P6 and full length; SPR: 25 mM HEPES pH 8, 150 mM NaCl, 1 mM TCEP, 0.01% Tween-20, 3 mM EDTA, temperature not stated; NMR: 20 mM HEPES pH 7, 100 mM NaCl (E100; or E300), 2 mM TCEP, 5% D2O, 298 K (complexes) or 283 K (disordered fragments). The note with it: protein: commercial;commercial; copies: 1;1; label: 5'-biotin on strand 1; blunt.

Series [5] addresses MYC(352-437);MAX(2-160) co-expressed (human?;human?, UniProt P01106-1;P61244 ;, |). As to the kind of experiment: SPR; strongest of the four DNAs; Kd only in figure; SPR: 25 mM HEPES pH 8, 150 mM NaCl, 1 mM TCEP, 0.01% Tween-20, 3 mM EDTA, temperature not stated; NMR: 20 mM HEPES pH 7, 100 mM NaCl (E100; or E300), 2 mM TCEP, 5% D2O, 298 K (complexes) or 283 K (disordered fragments). The note with it: protein: recombinant;recombinant; tags: N-His6 uncleavable;none; copies: 1;1; label: 5'-biotin on strand 1; blunt.

Series [6] has as its target Mb0 peptide MYC(11-34) (UniProt P01106-1). As to the kind of experiment: NMR; equimolar DNA; SPR: 25 mM HEPES pH 8, 150 mM NaCl, 1 mM TCEP, 0.01% Tween-20, 3 mM EDTA, temperature not stated; NMR: 20 mM HEPES pH 7, 100 mM NaCl (E100; or E300), 2 mM TCEP, 5% D2O, 298 K (complexes) or 283 K (disordered fragments). As to conditions: protein: recombinant; tags: His6-MBP-TEV cleaved; 13C-MTC on C25; blunt.

The target in series [7] is MYC(1-439)_C0,C25;MAX(2-160) (human?;human?, UniProt P01106-1;P61244 ;, C70A;C117A;C133A;C171A;C188A;C208A;C300A;C342A;C438A|). In words: NMR; 13C-MTC on C25; 10-fold DNA; SPR: 25 mM HEPES pH 8, 150 mM NaCl, 1 mM TCEP, 0.01% Tween-20, 3 mM EDTA, temperature not stated; NMR: 20 mM HEPES pH 7, 100 mM NaCl (E100; or E300), 2 mM TCEP, 5% D2O, 298 K (complexes) or 283 K (disordered fragments). The note with it: protein: recombinant;recombinant; tags: 13C-MTC label on C25;N-Strep-TEV, cleavable; copies: 1;1; blunt.

Series [8] deals with MYC(256-299) (UniProt P01106-1). As to the kind of experiment: NMR; SPR: 25 mM HEPES pH 8, 150 mM NaCl, 1 mM TCEP, 0.01% Tween-20, 3 mM EDTA, temperature not stated; NMR: 20 mM HEPES pH 7, 100 mM NaCl (E100; or E300), 2 mM TCEP, 5% D2O, 298 K (complexes) or 283 K (disordered fragments). The note with it: protein: recombinant; tags: His6-ZZ-TEV cleaved; 15N; blunt.
Chain of MYC(256-299) (P01106 other isoform, or with tags, fused parts or gaps): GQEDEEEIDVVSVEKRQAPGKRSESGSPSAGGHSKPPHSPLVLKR

T2 sequence (P01106 166-454, chain 1 of 2): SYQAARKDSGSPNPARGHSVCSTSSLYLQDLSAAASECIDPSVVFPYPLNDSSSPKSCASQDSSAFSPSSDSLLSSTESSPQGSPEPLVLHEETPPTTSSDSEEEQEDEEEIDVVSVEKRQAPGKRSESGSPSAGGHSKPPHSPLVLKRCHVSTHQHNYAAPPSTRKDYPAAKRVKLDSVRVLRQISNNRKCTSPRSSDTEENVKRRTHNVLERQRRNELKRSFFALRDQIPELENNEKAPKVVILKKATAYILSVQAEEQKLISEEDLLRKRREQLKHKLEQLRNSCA
T2 sequence (P61244 other isoform, or with tags, fused parts or gaps |, chain 2 of 2): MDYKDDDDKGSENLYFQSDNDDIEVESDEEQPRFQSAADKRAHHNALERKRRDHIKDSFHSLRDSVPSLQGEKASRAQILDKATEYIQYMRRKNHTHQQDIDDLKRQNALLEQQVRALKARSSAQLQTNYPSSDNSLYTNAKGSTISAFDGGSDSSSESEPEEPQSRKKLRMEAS
T1 sequence (P01106 17-454, chain 1 of 2): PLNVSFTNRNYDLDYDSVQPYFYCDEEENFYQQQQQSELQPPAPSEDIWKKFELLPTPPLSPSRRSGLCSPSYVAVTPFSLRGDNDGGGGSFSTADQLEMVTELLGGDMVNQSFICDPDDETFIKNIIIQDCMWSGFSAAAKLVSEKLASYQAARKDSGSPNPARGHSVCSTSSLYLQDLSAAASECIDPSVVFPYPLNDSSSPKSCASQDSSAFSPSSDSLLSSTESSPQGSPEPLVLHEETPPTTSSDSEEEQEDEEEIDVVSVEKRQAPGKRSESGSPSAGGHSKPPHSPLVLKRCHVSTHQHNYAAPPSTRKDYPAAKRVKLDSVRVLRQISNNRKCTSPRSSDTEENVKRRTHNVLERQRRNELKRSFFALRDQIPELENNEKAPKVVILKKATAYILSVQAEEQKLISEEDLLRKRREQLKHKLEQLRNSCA
T1 sequence (P61244 other isoform, or with tags, fused parts or gaps |, chain 2 of 2): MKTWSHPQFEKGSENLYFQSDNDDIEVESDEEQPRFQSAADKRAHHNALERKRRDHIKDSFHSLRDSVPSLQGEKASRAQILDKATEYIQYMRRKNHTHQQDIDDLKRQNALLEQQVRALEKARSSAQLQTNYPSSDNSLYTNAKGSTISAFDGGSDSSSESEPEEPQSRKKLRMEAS
Chain of Mb0 peptide MYC(11-34) (P01106 other isoform, or with tags, fused parts or gaps): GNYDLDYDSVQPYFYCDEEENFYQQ
Chain of MYC(1-439)_C0,C25;MAX(2-160) (P01106 other isoform, or with tags, fused parts or gaps C70A;C117A;C133A;C171A;C188A;C208A;C300A;C342A;C438A|, chain 1 of 2): as the sequence (P01106 17-454, chain 1 of 2) above, with C24A, C69A, C116A, C132A, C170A, C187A, C207A, C299A, C341A, C437A counted along it
Chain of MYC(352-437);MAX(2-160) co-expressed (P01106 other isoform, or with tags, fused parts or gaps |, chain 1 of 2): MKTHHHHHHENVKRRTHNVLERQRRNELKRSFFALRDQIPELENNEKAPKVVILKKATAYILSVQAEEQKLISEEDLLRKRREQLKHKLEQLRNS
Chain of MYC(352-437);MAX(2-160) co-expressed (P61244 whole entry, chain 2 of 2, the tested form may be a part): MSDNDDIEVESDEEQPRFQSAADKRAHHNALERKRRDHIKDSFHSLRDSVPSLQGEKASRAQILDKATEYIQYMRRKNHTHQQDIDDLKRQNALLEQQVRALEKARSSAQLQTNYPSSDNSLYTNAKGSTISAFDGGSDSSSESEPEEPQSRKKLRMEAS

B1: Negative control (dsDNA)
DNA 1: CCGGTTTAGCAGCCTA
DNA 2: TAGGCTGCTAAACCGG
As to B1, the binding result in series [1] and in series [2] was “no binding” throughout.

B2: E-Box (SPR) (dsDNA)
DNA 1: CCGGTCACGTGGCCTA
DNA 2: TAGGCCACGTGACCGG
Regarding B2, the binding result in series [3], in series [4] and in series [5] was “binds” each time.

B3: E-Box (NMR) (dsDNA)
DNA 1: CCGGTCACGTGGCCTA
DNA 2: TAGGCCACGTGACCGG
B3: the binding result in series [6] was “no binding”; in series [7], “binds”; in series [8], “no binding”.
